Results: US20190263918A1 (SHANGHAI JIAO TONG UNIVERSITY SCHOOL OF MEDICINE, published 2019)

B1: Anti-mDR5-hIgG2 (antibody)
heavy: QIQLQESGPGLVKPAQSLSLTCSITGFPITAGGYWWTWIRQFPGQKLEWMGYIYSSGSTNYNPSIKSRISITRDTAKNQFFLQLNSVTTEEDTAIYYCARAGTSYSGFFDSWGQGTLVTVSSASTKGPSVFPLAPCSRSTSESTAALGCLVKDYFPEPVTVSWNSGALTSGVHTFPAVLQSSGLYSLSSVVTVPSSNFGTQTYTCNVDHKPSNTKVDKTVERKCCVECPPCPAPPVAGPSVFLFPPKPKDTLMISRTPEVTCVVVDVSHEDPEVQFNWYVDGVEVHNAKTKPREEQFNSTFRVVSVLTVVHQDWLNGKEYKCKVSNKGLPAPIEKTISKTKGQPREPQVYTLPPSREEMTKNQVSLTCLVKGFYPSDIAVEWESNGQPENNYKTTPPMLDSDGSFFLYSKLTVDKSRWQQGNVFSCSVMHEALHNHYTQKSLSLSPGK
light: DIQVTQSPSLLSASFGDKVTINCLVTQDITYYLSWYQQKSGQPPTLLIYNGNSLQSGVPSRFSGQYSGRTFTLSLSSLEPEDAGTYYCLQHYSVPFTFGGGTRLEIKRTVAAPSVFIFPPSDEQLKSGTASVVCLLNNFYPREAKVQWKVDNALQSGNSQESVTEQDSKDSTYSLSSTLTLSKADYEKHKVYACEVTHQGLSSPVTKSFNRGEC
notes: Chimeric anti-murine DR5 antibody, heavy chain constant region G2; also called Anti-mDR5-IgG2
B2: Anti-mDR5-hIgG1(V11) (antibody)
heavy: QIQLQESGPGLVKPAQSLSLTCSITGFPITAGGYWWTWIRQFPGQKLEWMGYIYSSGSTNYNPSIKSRISITRDTAKNQFFLQLNSVTTEEDTAIYYCARAGTSYSGFFDSWGQGTLVTVSSATTKGPSVFPLAPSSKSTSGGTAALGCLVKDYFPEPVTVSWNSGALTSGVHTFPAVLQSSGLYSLSSVVTVPSSSLGTQTYICNVNHKPSNTKVDKRVEPKSCDKTHTCPPCPAPELLGDDSVFLFPPKPKDTLMISRTPEVTCVVVDVSDEDGEVKFNWYVDGVEVHNAKTKPREEQYNSTYRVVSVLTVLHQDWLNGKEYKCKVSNKALPRPIEKTISKAKGQPREPQVYTLPPSRDELTKNQVSLTCLVKGFYPSDIAVEWESNGQPENNYKTTPPVLDSDGSFFLYSKLTVDKSRWQQGNVFSCSVMHEALHNHYTQKSLSLSPGK
light: DIQVTQSPSLLSASFGDKVTINCLVTQDITYYLSWYQQKSGQPPTLLIYNGNSLQSGVPSRFSGQYSGRTFTLSLSSLEPEDAGTYYCLQHYSVPFTFGGGTRLEIKRTVAAPSVFIFPPSDEQLKSGTASVVCLLNNFYPREAKVQWKVDNALQSGNSQESVTEQDSKDSTYSLSSTLTLSKADYEKHKVYACEVTHQGLSSPVTKSFNRGEC
notes: Chimeric anti-murine DR5 antibody, heavy chain constant region V11(H1)
B3: Anti-hCD40-hIgG1(V11) (antibody)
heavy: not shown
light: DIQMTQSPSSVSASVGDRVTITCRASQGIYSWLAWYQQKPGKAPNLLIYTASTLQSGVPSRFSGSGSGTDFTLTISSLQPEDFATYYCQQANIFPLTFGGGTKVEIKRTVAAPSVFIFPPSDEQLKSGTASVVCLLNNFYPREAKVQWKVDNALQSGNSQESVTEQDSKDSTYSLSSTLTLSKADYEKHKVYACEVTHQGLSSPVTKSFNRGEC
notes: Human anti-human CD40 antibody, heavy chain constant region V11(H1)
B4: Anti-hCD40-hIgG2-HDPG (antibody)
heavy: not shown
light: DIQMTQSPSSVSASVGDRVTITCRASQGIYSWLAWYQQKPGKAPNLLIYTASTLQSGVPSRFSGSGSGTDFTLTISSLQPEDFATYYCQQANIFPLTFGGGTKVEIKRTVAAPSVFIFPPSDEQLKSGTASVVCLLNNFYPREAKVQWKVDNALQSGNSQESVTEQDSKDSTYSLSSTLTLSKADYEKHKVYACEVTHQGLSSPVTKSFNRGEC
notes: Human anti-human CD40 antibody, heavy chain constant region G2-HDPG, i.e. JAC4; also called anti-human CD40 antibody comprising JAC4
B5: Anti-hCD40-hIgG2-SE (antibody)
heavy: not shown
light: DIQMTQSPSSVSASVGDRVTITCRASQGIYSWLAWYQQKPGKAPNLLIYTASTLQSGVPSRFSGSGSGTDFTLTISSLQPEDFATYYCQQANIFPLTFGGGTKVEIKRTVAAPSVFIFPPSDEQLKSGTASVVCLLNNFYPREAKVQWKVDNALQSGNSQESVTEQDSKDSTYSLSSTLTLSKADYEKHKVYACEVTHQGLSSPVTKSFNRGEC
notes: Human anti-human CD40 antibody, heavy chain constant region G2-SE
B6: Anti-hCD40-hIgG2-SELF (antibody)
heavy: not shown
light: DIQMTQSPSSVSASVGDRVTITCRASQGIYSWLAWYQQKPGKAPNLLIYTASTLQSGVPSRFSGSGSGTDFTLTISSLQPEDFATYYCQQANIFPLTFGGGTKVEIKRTVAAPSVFIFPPSDEQLKSGTASVVCLLNNFYPREAKVQWKVDNALQSGNSQESVTEQDSKDSTYSLSSTLTLSKADYEKHKVYACEVTHQGLSSPVTKSFNRGEC
notes: Human anti-human CD40 antibody, heavy chain constant region G2-SELF, i.e. JAC3; also called anti-human CD40 antibody comprising JAC3

target: T1, murine DR5 on MC38 cells (murine, UniProt Q9QZM4 53-381); assay: flow cytometry on MC38 cells, FITC goat anti-human antibody
T1 construct: whole, on cells; also called mDR5
T1 sequence (looked up): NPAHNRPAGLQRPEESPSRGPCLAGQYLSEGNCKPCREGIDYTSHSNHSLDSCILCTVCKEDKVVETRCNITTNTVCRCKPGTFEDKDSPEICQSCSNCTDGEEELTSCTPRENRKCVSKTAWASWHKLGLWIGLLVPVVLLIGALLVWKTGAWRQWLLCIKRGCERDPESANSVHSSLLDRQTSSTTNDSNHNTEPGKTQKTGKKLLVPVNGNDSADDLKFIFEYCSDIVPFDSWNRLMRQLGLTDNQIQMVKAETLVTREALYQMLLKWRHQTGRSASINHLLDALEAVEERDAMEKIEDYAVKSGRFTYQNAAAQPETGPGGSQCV
Experimental: To detect the DR5 binding capacity of different anti-DR5 antibodies, MC38 cells were resuspended in ice-cold FACS buffer (PBS+0.5% FBS+2 mM EDTA+0.1% NaN3), to which 3.16-fold gradient dilutions of control and anti-DR5 antibody at concentrations ranging from 2 ng to 20 µg/mL were added, and the reaction was incubated at room temperature for 15 minutes. The system was washed twice with ice-cold FACS buffer, then flow-cytometry stained using FITC-labeled goat anti-human antibody (VECTOR FI-3080) on ice for 25 minutes in dark, which was then washed twice with FACS buffer and analyzed by flow-cytometry. For the antibodies, the DR5 binding capacity was positively correlated to FITC mean fluorescence intensity (MFI).

Binding result, binds:
B1, B2

target: T2, human FcγRIIA-R131 extracellular domain protein (human, UniProt P12318 34-217); assay: ELISA: plate coated with the anti-human CD40 antibody, biotinylated human FcγRIIA-R131 extracellular domain, streptavidin-HRP, A650 [lower FcγRIIA-R131 panel]
T2 construct: extracellular domain; SPR: His-tagged, immobilised; ELISA: biotinylated; also called hFcγRIIA-R131; CD32a
T2 sequence (looked up): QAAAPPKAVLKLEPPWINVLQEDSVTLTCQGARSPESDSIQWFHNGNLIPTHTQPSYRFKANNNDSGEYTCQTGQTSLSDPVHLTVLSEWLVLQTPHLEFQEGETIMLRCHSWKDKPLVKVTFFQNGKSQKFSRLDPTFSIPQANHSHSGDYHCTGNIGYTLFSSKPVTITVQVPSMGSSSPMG
Experimental: The ELISA plate was coated with 100 μL antibody at an appropriate concentration overnight, supernatant being discarded. The plate was blocked with 1% BSA in PBS for 2 hours, followed by washing with PBST (PBS with 0.05% Tween 20). Then, biotinylated FcγR extracellular domain protein (Sino Biologic Inc., Beijing China) at a concentration as appropriate was added and incubated at room temperature for 1 hour, supernatant being discarded, followed by PBST wash. Streptavidin-HRP (BD Biosciences) was added and incubated at room temperature for 1 hour for detection of biotin protein. After removal of supernatant, developing solution was added to react for 20-40 minutes, and absorbance was determined at 650 nm (A650).

Binding result, binds:
B3, B4, B5, B6
